Data from PMC5847591.

Target: NY-ESO-1_(60–72)–HLA-B*07:02 complex (human)
Assay: SPR

Sequence of KFJ4 TCR, soluble ectodomain (TRAV13-1 α-chain) (P01848 whole entry, looked up, the tested form may be a part): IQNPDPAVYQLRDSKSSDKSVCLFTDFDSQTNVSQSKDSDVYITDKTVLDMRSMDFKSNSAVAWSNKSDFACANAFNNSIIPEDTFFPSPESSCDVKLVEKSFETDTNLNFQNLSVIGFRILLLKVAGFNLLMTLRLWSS
Sequence of KFJ15 TCR, soluble ectodomain (P01848 whole entry, looked up, the tested form may be a part): as above

Row | Kd [µM] | koff [s⁻¹] | Substance
1 | 52.1 | 0.12 | KFJ4 TCR, soluble ectodomain (TRAV13-1 α-chain) (from UniProt P01848)
2 | 41.5 | – | KFJ15 TCR, soluble ectodomain (from UniProt P01848)
3 | 40.6 | 0.109 | KFJ37 TCR, soluble ectodomain (from UniProt A0A0B4J268 18-107; A0A0B4J1U6 20-113)
